B1: Example 2: peptide having analgesic and antitumor activity purified from homogenized scorpion by the processes of Example 1; SEQ ID NO: 1 (protein)
chain: VRDGYIADDKNCAYFCGRNAYCDDECKKNGAESGYCQWAGVYGNACWCYKLPDKVPIRVPGKCNGG
modifications: Scorpion

Tests used:
Assay type in all cases: in vivo
S180 sarcoma solid tumor = test: mouse S180 sarcoma solid tumor model, inhibitory rate of tumor weight; conditions: S180, dose 60.0 mg/kg weight (positive control)
Experimental: (§1) In mouse experimental tumor model, such as ehrlich ascites carcinoma and S180 entity tumor, the peptide derived from the scorpion or partial fragment, derivative or analogue thereof having analgesic and antitumor activity obtained in example 1,2 and 6 was injected subcutaneously in a dose of 0.1 mg/kg weight to 16.0 mg/kg weight for continuous seven days. […] For example, the peptide of the SDS-PAGE single band obtained in Example 1 was administrated at the dose of 0.639 mg/kg weight. […] The peptide derived from the scorpion or partial fragment, derivative or analogue thereof having analgesic and antitumor activity obtained in example 1,2 and 6 was administrated by stomach infusion in a dose of 0.1 mg/kg weight to 16.0 mg/kg weight for continuous ten days.

[1] = tested on: ehrlich ascites carcinoma; test: mouse ehrlich ascites carcinoma model, rate of life prolonging
Experimental: as §1

mouse heat plate model = mouse heat plate model (pain threshold); conditions: 0.6 mg/kg weight intravenously
Experimental: (§2) The above samples were administrated by stomach infusion in a dose of 0.1 mg/kg weight to 16.0 mg/kg weight. […] In the mouse heat plate model, the above samples were administrated by intravenous injection in a dose of 0.1 mg/kg weight to 16.0 mg/kg weight. […] For example, the peptide of SDS-PAGE single band obtained in example 1 and 2 were injected intravenously at 0.6 mg/kg weight.

[2] = tested on: writhing response of mouse (acetic acid writhing model); conditions: administered by stomach infusion
Experimental: as §2

| Molecule | inhibitory rate of tumor weight (S180 sarcoma solid tumor) [%] | rate of life prolonging ([1]; dose 60.0 mg/kg weight, subcutaneous injection (positive control)) [%] | pain threshold raised in a rate of (mouse heat plate model; at 5 min) [%] | pain threshold raised in a rate of (mouse heat plate model; at 15 min) [%] | pain threshold raised in a rate of (mouse heat plate model; at 25 min) [%] | pain threshold raised in a rate of (mouse heat plate model; at 35 min) [%] | pain threshold raised in a rate of (mouse heat plate model; at 45 min) [%] | pain threshold raised in a rate of (mouse heat plate model; at 60 min) [%] | pain threshold raised in a rate of (mouse heat plate model; at 90 min) [%] | rate of life prolonging ([1]; stomach infusion, dose 0.213 mg/kg weight, ten days) [%] | rate of life prolonging ([1]; stomach infusion, dose 0.639 mg/kg weight, ten days) [%] | ED50 (median effective dose) [2] [mg/kg weight] |
| --- | --- | --- | --- | --- | --- | --- | --- | --- | --- | --- | --- | --- |
| O=P1(N(CCCl)CCCl)NCCCO1 (stereo not drawn) [cyclophosphamide, reference compound] | 50.5 | 15.6 |  |  |  |  |  |  |  |  |  |  |
| B1 |  |  | 16.5 | 145.7 | 219.1 | 219.1 | 177.6 | 32.4 | 14.9 | 16.8 | 31.5 | 2.86 |
